Reference: article PMC11180146 (2024)

What was measured:
[1] = biological target: RNAseB, glycosylated (HM N-glycan at N34, mainly Man5 and Man6) (beef (bovine), as said of the protein in general) (UniProt P61823); assay: SPR; glycosylated RNAseB (Man5/6) amine-coupled to a CM5 chip on flow cell 2 (150 RU), deglycosylated RNAseB on control flow cell 1; enzyme as analyte, 120 s injection, 600 s dissociation; HBS-EP running buffer; Biacore X100
[2] = biological target: T1, RNAseB, glycosylated (HM N-glycan at N34, mainly Man5 and Man6) (beef (bovine), as said of the protein …, UniProt P61823 27-150, HM N-glycan (mainly Man5 and Man6) at N34); assay: SPR
T1 chain: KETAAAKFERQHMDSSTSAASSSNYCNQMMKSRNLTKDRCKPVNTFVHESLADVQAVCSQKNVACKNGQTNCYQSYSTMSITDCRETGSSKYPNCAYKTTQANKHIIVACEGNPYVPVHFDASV

Kd [1]: 3.5 nM
koff [2]: 0.000419 s⁻¹
B1: BT1285_(D161A-E163A), catalytically inactive variant of the GH18 endo-β-N-acetylglucosaminidase BT1285 (enzyme)
chain: MPVNQSDNNQSEVVTRSATGIKNIVYIEVNDINPLNAGSYIMDDAPFFDYVILFAANIRGVGSDATLYNNPNVQYILDHKDTLIKPLQDKGIKVLLGLLGDHTGLGFANMNSAQTEQFATAVANAVSQYGLDGVDFADAWAEYGRNGYPSGSTGSFSNLITALHNKMPGKTITVFNYGYTSELTGVNSYIDYGIYAFFNSPSWSTGFGMPNSKFAPYTINLNSAPSAASAQLYSGQVASKGYGAIGYYDLRANNIVSVLNGVAKGAFKSTCTYDGNSYPKNY
